Measured values published in the RNAGym collection of RNA variant scans (doi:10.1073/pnas.2313332121).
This sample holds only a part of the variants without activity.

B1: TPR 5TU (parent)
chain: GGAUCUUCUCGAUCUAACAAAAAAGACAAAUCUGCCACAAAGCUUGAGAGCAUCUUCGGAUGCAGAGGCGGCAGCCUUCGGUGGCGCGAUAGCGCCAACGUUCUCAACUAUGACACGCAAAACGCGUGCUCCGUUGAAUGGAGUUUAUCAUG

Variants of: B1
Assay: polymerase ribozyme fitness, log enrichment relative to wild type (log ratio); higher = more active; in vitro selection for triplet polymerase activity
Method in brief: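 Fitness is a logarithmic measure of how a genotype enriched relative to the wild type, with replicate averages weighted by inverse variance. The logarithm uses base 2, and enrichment came from Illumina sequencing of input and output libraries. Those libraries were PCR-built, transcribed mutants of each subunit of a heterodimeric triplet polymerase ribozyme, passed through one triplicate in vitro selection round that included frozen incubation at −7 °C, gel excision of extended constructs and streptavidin-bead capture. Genotypes were kept only if they had ≥10 input reads and ≥1 read per output.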

A91C U139G and G88C C95U cannot be ordered by “polymerase ribozyme fitness (log ratio)” value: at most -4.2 for the first, at most -4.2 for the second.

Going from C87U C118U G143C to A89G A98G G143C, the “polymerase ribozyme fitness (log ratio)” value falls from -2.54 to -3.66.

First: C87G A89U
Second: A91G C96U A106G
The “polymerase ribozyme fitness (log ratio)” value of the first is lower: at most -4.2 for the first, -2.5 for the second.

Going from A89G C99G U102A C123G U135C U145G to A91G G140U, the “polymerase ribozyme fitness (log ratio)” value rises from at most -4.2 to -4.19.

Going from A89C C103A to A89U C93U C125U U127A A142U C149U, the “polymerase ribozyme fitness (log ratio)” value falls from -2.11 to at most -4.2.

Compared with U90G G100A C116U, A89G C99G C116A is higher in “polymerase ribozyme fitness (log ratio)” value: at most -4.2 for the first, -1.92 for the second.

G88U A106G and C87G A106G are within 0.2 log units of each other in “polymerase ribozyme fitness (log ratio)” value: -3.91 for the first, -4 for the second.

Going from C87U U151G to G86U C93G, the “polymerase ribozyme fitness (log ratio)” value rises from -3.96 to -1.28.

Going from C87U U109C to C87A C123A A150U, the “polymerase ribozyme fitness (log ratio)” value rises from -3.46 to -3.19.

Going from A89C U130A to C87G G112U, the “polymerase ribozyme fitness (log ratio)” value falls from -3.07 to at most -4.2.

First: G88A C149U
Second: C87A G100U
The “polymerase ribozyme fitness (log ratio)” value of the first is higher: -4.04 for the first, at most -4.2 for the second.

Going from A91G C95G to G88A C96A C125U G126U, the “polymerase ribozyme fitness (log ratio)” value falls from -3.67 to at most -4.2.

Going from C87G C105U U127C to A89C C123A G128U, the “polymerase ribozyme fitness (log ratio)” value rises from -4.1 to -3.31.

Going from C87U G94C to G88A A110G, the “polymerase ribozyme fitness (log ratio)” value falls from -2.05 to at most -4.2.

First: G86U A137G
Second: C87A G140C
The “polymerase ribozyme fitness (log ratio)” value of the first is higher: -3.03 for the first, at most -4.2 for the second.

Going from A89G C125U C132U to C87G U134A, the “polymerase ribozyme fitness (log ratio)” value falls from -1.73 to at most -4.2.

Going from C87U U101G A137C to G86U C93G A106G C132U U148A, the “polymerase ribozyme fitness (log ratio)” value rises from -3.73 to -3.05.

U90G C96A C131G and A91C A115C cannot be ordered by “polymerase ribozyme fitness (log ratio)” value: at most -4.2 for the first, at most -4.2 for the second.

First: A89C C125A
Second: C87G G92C C125U U127G U135G G141C
The “polymerase ribozyme fitness (log ratio)” value of the first is higher: -1.13 for the first, at most -4.2 for the second.

First: A89C C96U A97C C99U
Second: G88C A89C C95U
The “polymerase ribozyme fitness (log ratio)” value of the first is higher: -3.09 for the first, at most -4.2 for the second.

Going from G88C A115U to G88A G117U, the “polymerase ribozyme fitness (log ratio)” value rises from at most -4.2 to -3.84.

Compared with A91C C96A G126A, A91G U144G is higher in “polymerase ribozyme fitness (log ratio)” value: at most -4.2 for the first, -2.02 for the second.

Compared with C87U C132U, C87U C132G is lower in “polymerase ribozyme fitness (log ratio)” value: -1.11 for the first, -3.72 for the second.

First: G88A C105A A147C U151G
Second: A89U U148G
The “polymerase ribozyme fitness (log ratio)” value of the first is lower: at most -4.2 for the first, -3.92 for the second.

C87G A110C U146G C149A and G88A A98U A106C cannot be ordered by “polymerase ribozyme fitness (log ratio)” value: at most -4.2 for the first, at most -4.2 for the second.

First: C87U U146G
Second: A91G A106G
The “polymerase ribozyme fitness (log ratio)” value of the first is higher: -0.864 for the first, -1.93 for the second.

Going from A91G A120G to A91G G112C, the “polymerase ribozyme fitness (log ratio)” value falls from -2.98 to -3.76.

U90G G124C and A89U A91U cannot be ordered by “polymerase ribozyme fitness (log ratio)” value: at most -4.2 for the first, at most -4.2 for the second.

A89U A97G U134A G141C and A89U G92C G94U G141A are within 0.2 log units of each other in “polymerase ribozyme fitness (log ratio)” value: -3.84 for the first, -3.94 for the second.

First: A91G C116G
Second: C87A A107C U139C U151A
The “polymerase ribozyme fitness (log ratio)” value of the first is higher: -1.65 for the first, at most -4.2 for the second.

C87G C105G and A91C A107U cannot be ordered by “polymerase ribozyme fitness (log ratio)” value: at most -4.2 for the first, at most -4.2 for the second.

Compared with G86U G92C, G86U G92U is higher in “polymerase ribozyme fitness (log ratio)” value: -2.75 for the first, -1.95 for the second.

First: C87U A115U
Second: G88A G94A C99G C103G U104A A107G
The “polymerase ribozyme fitness (log ratio)” value of the first is higher: -1.73 for the first, at most -4.2 for the second.

First: U90A C95U A121U U127A
Second: C87U C96U C125U U144A
The “polymerase ribozyme fitness (log ratio)” value of the first is lower: at most -4.2 for the first, -2.68 for the second.

Compared with C87A C96U C99G U111C C125A, U90C U104A is higher in “polymerase ribozyme fitness (log ratio)” value: at most -4.2 for the first, -4.11 for the second.

Going from C87U C125A C131U to G88U C108A, the “polymerase ribozyme fitness (log ratio)” value falls from 0.186 to at most -4.2.

Compared with G88A G136A, C87U C129A is higher in “polymerase ribozyme fitness (log ratio)” value: -3.83 for the first, -2.76 for the second.

Going from A89C U148C to U90G C93G C99U, the “polymerase ribozyme fitness (log ratio)” value falls from -3.51 to at most -4.2.

A91G A113C U127C U146G and C87A A89U C129G cannot be ordered by “polymerase ribozyme fitness (log ratio)” value: at most -4.2 for the first, at most -4.2 for the second.

First: C87G A98U
Second: C87G A98G
The “polymerase ribozyme fitness (log ratio)” value of the first is higher: -3.64 for the first, at most -4.2 for the second.

First: C87A U144G
Second: C87A U144C
The “polymerase ribozyme fitness (log ratio)” value of the first is higher: -3.92 for the first, at most -4.2 for the second.

First: U90A A106C A121U
Second: A89G G126U U148G
The “polymerase ribozyme fitness (log ratio)” value of the first is lower: at most -4.2 for the first, -4.06 for the second.
